# Molecular target: Flag-tagged phosphor-mutant (AA: S1310A, S1379A) full-length human Tet3 (lentiviral) (human) (UniProt O43151)
# Experiment: co-IP; Tet3 KO mouse ESCs stably expressing Flag-tagged Wt or AA human Tet3; lysate in TBST buffer (50 mM Tris-HCl pH 7.4, 150 mM NaCl, 1 mM EDTA, 1% Triton X-100); IP overnight with anti-Flag M2 affinity gel or mouse IgG agarose, washed four times with TBST; blot for FLAG and H2A.Z
substance,measurement,value
"histone variant H2A.Z (endogenous, mouse ESCs) (from UniProt P0C0S6 1-128) (natural protein)","fold change of H2A.Z pulled down, against wild-type Tet3",2 fold
